Here are results for one molecule from doi:10.1101/2023.02.03.526715 (bioRxiv, 2023).

The target of this assay is recombinant human cardiac troponin I tagged with GST (human, UniProt P19429 1-210). The assay is described as follows: ELISA.
Sequence of recombinant human cardiac troponin I tagged with GST (P19429 whole entry): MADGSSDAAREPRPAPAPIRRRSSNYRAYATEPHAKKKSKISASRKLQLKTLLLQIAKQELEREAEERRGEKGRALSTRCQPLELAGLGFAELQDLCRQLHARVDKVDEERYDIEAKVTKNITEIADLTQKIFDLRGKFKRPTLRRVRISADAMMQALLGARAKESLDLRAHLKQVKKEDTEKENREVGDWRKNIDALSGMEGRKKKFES

Take AGRKLALKTI [P888, ten amino acid peptide corresponding to ATP synthase subunit d residues 2-11]: the binding result was “binds”.
